Tests used:
[1] = Controlled shaking of insulin solutions in 2-week minipumps equipped with small diameter catheters; format: physicochemical; settings: shaken 8 days at 37°
Experimental: Minipumps (Alzet Osmotic Minipump No. 2002, Alza Corporation, Palo Alto, Calif.) that release their contents ([…]) at a constant rate ([…]) over a minimum of 14 days were filled with insulin or amino acid-insulin solutions. The minipumps were weighed before and after filling to determine the initial inner fluid volume. A 5 cm vinyl catheter (Iv. soft medical polyvinyl tubing; i.D.=0.023 inch; Bolab Inc. Co., Derry, N.H.) was attached to the tubes' exterior beyond their flanges.
Acid and neutral insulin solutions were prepared with and without glutamic or aspartic acids as described in Example I except insulin concentrations were 120 U/ml (approximately 5 mg/ml). Glutamic and aspartic acids were added to a concentration of 7 mg/ml. The final pH's of the amino acid insulin solutions were 3.3-3.5.
Pumps with attached catheters were placed in a 5 ml plastic vial containing a cotton wad and sufficient saline to immerse and activate the pump. The catheter passed through a 0.5 ml air space at the top of the fluid in the tube, the terminal end being submerged in the saline. The tubes were sealed with a plastic cap covered with parafilm. They were shaken at 37° in a metabolic shaking incubator (Dubnoff E.C.A.) at 80-100 r.p.m. for periods up to 8 days. Pumps were removed from the tubes on the 8th day after shaking; catheters were examined for precipitates by eye and residual contents were removed and centrifuged in microtubes to evaluate the precipitate.

[2] = target: T1, single component neutral pork zinc insulin (Sus scrofa, UniProt P01315); experiment: Controlled shaking of zinc insulin solutions in test tubes, optical density at 600 nm; format: physicochemical; settings: for Optical Density ± 1 × SE: zinc insulin 50 U/ml, OD at 600 nm
T1 construct: single component, neutral, pork, zinc-insulin (U.500 regular Iletin II., Eli Lilly & Company); purchased Eli Lilly & Company U.500 regular Iletin II
T1 sequence (P01315 25-54 limits assumed): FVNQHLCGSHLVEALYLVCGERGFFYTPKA
T1 sequence (P01315 88-108 limits assumed): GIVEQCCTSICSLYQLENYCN
Experimental: In vitro testing of single component neutral pork zinc insulin was undertaken with a number of added agents. Solutions at about neutral pH and at acid pH were tested. In addition, some testing was also undertaken with Na insulin.
The tests were conducted using plastic tybes (5 ml test tubes, Sarstedt, sealed by plastic caps covered with paraffin) each containing 2 ml of the insulin solutions noted below. The tubes were continuously agitated in a metabolic shaking incubator (Dubnoff E.C.A. Co.) at 60 to 80 r.p.m. and 37° C. for periods up to sixteen days.
The zinc insulin solutions were prepared by appropriate dilutions of highly concentrated (500 U/ml) single component, neutral, pork, zinc-insulin (U.500 regular Iletin II., Eli Lilly & Company). The unbuffered diluting fluid contained glycerin, 16 mg/ml, and phenol, 2 mg/ml of distilled water (Eli Lilly & Company). […] Final insulin concentration in all solutions was 50 U/ml (2 mg/ml).
Insulin solutions with amino acid added were prepared by addition of the dry amino acids (Sigma Company) to the neutral zinc or sodium insulin solutions. Final concentration of the amino acid additives was 7 mg per ml of insulin solution. pH was adjusted, when necessary, to 7.5 for neutral insulin mixtures and to 3.3-3.5 for acid insulin mixtures.
Several non-amino carboxylic acids, i.e., lactic acid, acetic acid, and citric acid, were added under the same conditions of concentration and pH as described for the amino acids.
The various insulin solutions, both as made up without additives and with additives, were shaken as noted above for up to sixteen days, at which time the solutions were examined with an optical densitometer at a wave length 600 nm. The optical density (OD) of each solution was an indication of the amount of aggregation present after the shaking period. The higher the optical density, the greater the aggregation in that solution.

Substance: Neutral Single Component Zinc Insulin: single component, neutral, pork, zinc-insulin (U.500 regular Iletin II, Eli Lilly & Company), diluted, no agent added
- Number of Pumps with Aggregates in Catheter ([1]; pH 3.3, 120 U/ml, of 6 pumps): 4
- Number of Pumps with Precipitates ([1]; pH 3.3, 120 U/ml, of 6 pumps): 0
- Number of Pumps with Aggregates in Catheter ([1]; pH 7.4, 120 U/ml, of 3 pumps): 3
- Number of Pumps with Precipitates ([1]; pH 7.4, 120 U/ml, of 3 pumps): 3
- Time at which aggregates appeared ([2]; acidified (pH 2.9-3.3), unbuffered): by the fourth day
- Aggregation of acidified unbuffered insulin solution (in words) ([2]; pH 2.9-3.3, unbuffered, through day 16): the aggregation was as great through day 16 as unacidified solutions
- Optical Density ± 1 × SE ([2]; pH 2.9-3.3, shaken 16 days at 37° C.): 0.181 ± 0.03
- Optical Density ± 1 × SE ([2]; pH 7.4, shaken 16 days at 37° C., higher OD = greater aggregation): 0.603 ± 0.08
